Source: the supplement of paper PMC9876800

System: peptide library, one residue held at a place counted from the S/T acceptor
Assay: relative phosphorylation of the sub-library (ratio to the mean residue at this position); higher = residue favoured
Details: human
Procedure, shortened: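 Each biotinylated degenerate peptide sub-library fixed one residue at one position around a central Ser/Thr and was incubated with a purified recombinant kinase, a human or orthologue construct, in 384-well plates. The 90 min reactions, under kinase-specific conditions, contained 50 μM peptide and 50 μM ATP spiked with γ-32P-ATP. Phosphorylation was read by phosphorimaging spots on streptavidin membranes and quantifying them by densitometry. Relative sub-library phosphorylation expresses each value as a ratio to the mean residue at that position.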

PRKD1, construct: Full length, sequence (Q15139 whole entry, looked up): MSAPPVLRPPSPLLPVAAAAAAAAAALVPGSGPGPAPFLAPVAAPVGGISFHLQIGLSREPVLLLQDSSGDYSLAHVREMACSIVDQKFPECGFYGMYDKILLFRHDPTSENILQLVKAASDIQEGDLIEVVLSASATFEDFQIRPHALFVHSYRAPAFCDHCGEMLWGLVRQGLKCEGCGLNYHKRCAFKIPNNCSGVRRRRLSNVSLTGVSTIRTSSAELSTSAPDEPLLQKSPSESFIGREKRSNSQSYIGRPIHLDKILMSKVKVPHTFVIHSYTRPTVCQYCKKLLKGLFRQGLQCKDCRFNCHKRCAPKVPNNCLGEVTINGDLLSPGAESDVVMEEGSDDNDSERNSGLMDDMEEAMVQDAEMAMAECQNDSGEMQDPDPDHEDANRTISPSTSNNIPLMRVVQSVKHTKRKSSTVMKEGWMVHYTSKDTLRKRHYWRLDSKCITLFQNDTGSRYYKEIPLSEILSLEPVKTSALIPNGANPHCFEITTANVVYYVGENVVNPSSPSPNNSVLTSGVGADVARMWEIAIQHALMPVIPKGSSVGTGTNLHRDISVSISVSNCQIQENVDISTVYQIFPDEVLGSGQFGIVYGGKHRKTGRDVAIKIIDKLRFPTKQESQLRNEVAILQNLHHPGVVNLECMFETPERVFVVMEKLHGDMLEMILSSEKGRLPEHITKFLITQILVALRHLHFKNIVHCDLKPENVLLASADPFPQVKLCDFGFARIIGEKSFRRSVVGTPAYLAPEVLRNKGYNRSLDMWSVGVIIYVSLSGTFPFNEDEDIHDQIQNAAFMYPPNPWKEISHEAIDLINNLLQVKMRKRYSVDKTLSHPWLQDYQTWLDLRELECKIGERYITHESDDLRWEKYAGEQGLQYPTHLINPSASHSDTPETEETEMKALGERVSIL
TGFBR1, construct: aa20-end, sequence (P36897 20-503, looked up): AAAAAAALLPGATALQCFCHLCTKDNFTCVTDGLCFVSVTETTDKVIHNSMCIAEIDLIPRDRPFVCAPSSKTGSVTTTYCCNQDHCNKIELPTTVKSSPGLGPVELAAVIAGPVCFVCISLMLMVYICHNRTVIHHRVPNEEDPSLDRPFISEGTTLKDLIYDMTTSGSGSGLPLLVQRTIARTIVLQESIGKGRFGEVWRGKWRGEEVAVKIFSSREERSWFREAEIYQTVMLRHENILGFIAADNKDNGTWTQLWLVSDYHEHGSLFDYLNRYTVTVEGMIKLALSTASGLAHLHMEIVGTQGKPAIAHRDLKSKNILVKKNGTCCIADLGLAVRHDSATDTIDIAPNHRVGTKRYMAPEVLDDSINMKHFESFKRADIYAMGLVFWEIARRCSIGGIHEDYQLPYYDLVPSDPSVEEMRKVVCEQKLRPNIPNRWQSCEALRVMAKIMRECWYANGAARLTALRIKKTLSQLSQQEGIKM

PRKD1, construct: Full length (from UniProt Q15139)
relative phosphorylation
Details | at +1 | at +2 | at +3 | at +4 | at -1 | at -2 | at -3 | at -4 | at -5
A fixed | 0.979 | 1.13 | 0.873 | 1.1 | 0.938 | 1.9 | 1.38 | 1.82 | 1.63
D fixed | 0.653 | 1.21 | 1.14 | 1.37 | 0.869 | 0.32 | 0.243 | 0.514 | 0.411
E fixed | 0.53 | 0.784 | 0.839 | 1.05 | 0.564 | 0.578 | 0.347 | 0.925 | 0.362
F fixed | 0.964 | 0.86 | 0.811 | 0.885 | 0.467 | 0.609 | 0.47 | 0.792 | 0.668
G fixed | 1.19 | 1.52 | 1.75 | 1.39 | 0.878 | 0.682 | 0.919 | 1.86 | 0.708
H fixed | 1.05 | 1.04 | 0.95 | 1.23 | 0.823 | 0.726 | 0.802 | 0.897 | 0.506
I fixed | 0.989 | 0.505 | 0.669 | 0.601 | 0.383 | 0.552 | 0.284 | 0.694 | 1.03
K fixed | 0.619 | 0.518 | 0.582 | 0.651 | 1.79 | 1.78 | 1.46 | 1.09 | 0.414
L fixed | 1.02 | 0.66 | 0.887 | 0.674 | 0.863 | 0.735 | 0.346 | 0.791 | 3.41
M fixed | 1.22 | 0.946 | 0.886 | 0.924 | 0.945 | 1.79 | 0.653 | 1.25 | 0.713
N fixed | 2.19 | 1.9 | 1.2 | 1.31 | 2.05 | 0.912 | 0.829 | 0.831 | 0.537
P fixed | 0.369 | 1.81 | 2.37 | 1.46 | 2.43 | 0.593 | 1.49 | 0.656 | 1.34
Q fixed | 1.47 | 1.1 | 1.13 | 1.25 | 1.27 | 2.26 | 0.865 | 1.26 | 0.953
R fixed | 0.537 | 0.486 | 0.364 | 0.436 | 0.703 | 1.46 | 5.06 | 1.12 | 1.29
V fixed | 1.04 | 0.688 | 0.735 | 0.624 | 0.613 | 1.01 | 0.411 | 0.844 | 1.61
W fixed | 0.966 | 0.971 | 0.889 | 0.963 | 0.535 | 0.455 | 0.677 | 0.787 | 0.538
Y fixed | 1.22 | 0.86 | 0.926 | 1.07 | 0.873 | 0.644 | 0.777 | 0.857 | 0.878
pThr fixed | 0.596 | 0.624 | 0.842 | 0.939 | 0.207 | 0.27 | 0.295 | 0.467 | 0.28
pTyr fixed | 0.774 | 0.836 | 0.826 | 1.12 | 0.69 | 0.357 | 0.306 | 0.533 | 0.624

TGFBR1, construct: aa20-end (from UniProt P36897)
relative phosphorylation
Details | at +1 | at +2 | at +3 | at +4 | at -1 | at -2 | at -3 | at -4 | at -5
A fixed | 0.823 | 1.16 | 0.888 | 0.966 | 0.853 | 0.688 | 0.982 | 1.11 | 1.12
D fixed | 1.69 | 1.71 | 1.48 | 1.29 | 1.42 | 1.62 | 1.5 | 1.39 | 1.15
E fixed | 2.27 | 1.57 | 1.94 | 1.55 | 1.78 | 7.31 | 1.73 | 1.22 | 1.21
F fixed | 1 | 1.05 | 0.773 | 0.942 | 0.858 | 0.397 | 0.748 | 0.805 | 0.908
G fixed | 0.779 | 1.13 | 1.63 | 1.2 | 0.834 | 0.712 | 1.19 | 1.33 | 1.1
H fixed | 1.15 | 0.728 | 0.792 | 0.846 | 0.968 | 0.513 | 0.894 | 0.991 | 0.944
I fixed | 1.03 | 1.07 | 0.954 | 1.01 | 0.86 | 0.474 | 0.814 | 0.96 | 0.929
K fixed | 0.396 | 0.545 | 0.448 | 0.59 | 0.5 | 0.4 | 0.598 | 0.719 | 0.892
L fixed | 0.751 | 0.706 | 0.899 | 0.908 | 1.18 | 0.486 | 0.841 | 0.943 | 0.878
M fixed | 1.25 | 0.915 | 0.916 | 0.871 | 1.35 | 0.545 | 1.1 | 1.02 | 0.983
N fixed | 0.733 | 0.874 | 0.809 | 0.879 | 1.06 | 0.767 | 1.06 | 1.15 | 1.31
P fixed | 0.522 | 1.07 | 1.32 | 1.32 | 0.592 | 0.459 | 0.982 | 1.09 | 1.03
Q fixed | 0.826 | 0.717 | 0.794 | 0.834 | 1.04 | 0.893 | 0.992 | 0.865 | 0.917
R fixed | 0.357 | 0.489 | 0.467 | 0.519 | 0.589 | 0.435 | 0.633 | 0.697 | 0.844
V fixed | 1.05 | 1.18 | 1.02 | 0.959 | 1.26 | 0.501 | 0.924 | 1.02 | 0.978
W fixed | 0.919 | 0.954 | 0.915 | 1.27 | 0.804 | 0.4 | 1.2 | 0.787 | 0.822
Y fixed | 1.44 | 1.12 | 0.956 | 1.03 | 1.04 | 0.401 | 0.815 | 0.89 | 0.98
pThr fixed | 3.78 | 1.38 | 1.04 | 1.62 | 1.19 | 1.48 | 1.07 | 0.963 | 0.853
pTyr fixed | 4.22 | 1.82 | 1.39 | 1.66 | 1.51 | 0.639 | 1.08 | 1.05 | 0.835
